# Experimental data reported in the supplement of paper PMC10065799, “High-throughput profiling of sequence recognition by tyrosine kinases and SH2 domains using bacterial peptide display” (eLife, 2023).
# System: c-Src
# Assay: phosphorylation enrichment, bacterial display (enrichment ratio); higher = better substrate or ligand; peptides without Tyr show the background
# 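Wherever SH2 binding enrichment of the phosphorylated peptide, bacterial display is given: peptide library displayed on the E. coli surface as eCPX fusions, selected cells deep-sequenced, score is each peptide's frequency after selection divided by its frequency in the input.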
# 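Wherever phosphorylation enrichment, bacterial display is given: 11-residue human phosphosite peptides and single-mutation variants displayed on the E. coli surface, counted by deep sequencing, each peptide's frequency after selection divided by its frequency in the unselected input library; frequency after pTyr selection over input frequency; kinase dosed for 20-30% of maximal phosphorylation in three min.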
row,Sequence,phosphorylation enrichment
1,PGQRVYVVAES [SHH_Y316_R321S],0.546
2,PVDVAYRHGFF [PLEC_Y2967_R2969H_YF],0.325
3,IGEGTYRTVFK [CDK5_Y15_G16R],0.558
4,RNVFFYSFLLK [PTEN_Y178_Y174N_YF],0.508
5,SLQFEYVHFGG [CDC14A_Y591_S589F_YF],0.604
6,ILIFHYAKGQP [MPZ_Y82_S78L],0.508
7,HISGVYKLPPD [ANGPTL7_Y145_R140H],2.3
8,KGRAGYTTVAV [RET_Y752],0.347
9,ATARPYRPYII [LRP5_Y1528],0.581
10,PSGPAYRGAVP [ASAH1_Y43_T42A],0.506
11,ARGMEYLASKK [FGFR1_Y613],0.403
12,RKETFYILSCR [GUCY2C_Y681_T682I],0.448
13,RLRKYHLGKYL [KLB_Y906_Y906H],0.387
14,FLTQHYDAEPQ [ANG_Y38_K41E],0.601
15,TEQDPYNNIVH [MMUT_Y364_R369H],0.515
16,YSGDCYRIQGR [DDR2_Y741_Y740C],0.374
17,LKEIRYPPFTD [ALDH3B2_Y362_H361R_YF],0.919

row,Sequence,phosphorylation enrichment
1,DQIDTYELSGG [DNM1_Y354],1.28
2,NHFKIYNLCAE [PTEN_Y68_YF],3.12
3,WQQQSYLDYGI [CTNNB1_Y30_S33Y],0.743
4,GLSAPYVKIHL [SYT2_Y309_D307A],0.383
5,KIVQDYLEKFY [MMP8_Y36_T32I],0.449
6,GVRLFYRVRES [RB1_Y454_M457R_YF],0.349
7,KVGRVYLFLQP [ITGA2B_Y360_E355K],0.362
8,NRVEIYEKTVE [CYFIP1_Y108],0.599
9,VPLLEYFRDIF [CDAN1_Y712_YF],0.52
10,DDHFTYSRYPW [LY75_Y888],5.2
11,LVSCTYQLARG [FGFR2_Y608],0.783
12,IHFAIYLLKFS [ARMC9_Y107_YF],0.499
13,PPSLSYLSFEG [EXOSC3_Y143_A139P],1.1
14,LNARHYGGLTG [PGAM2_Y92_E89A],0.631
15,KVNKIYHPDFI [LIG3_Y767_Y768H],0.43
16,QSPQLYKQMCI [DARS1_Y253],0.485

# Biological target: Grb2 SH2 (UniProt P62993)
# Assay: SH2 binding enrichment of the phosphorylated peptide, bacterial display (enrichment ratio); higher = better substrate or ligand; peptides without Tyr show the background
# Chain of Grb2 SH2 (P62993 whole entry, looked up): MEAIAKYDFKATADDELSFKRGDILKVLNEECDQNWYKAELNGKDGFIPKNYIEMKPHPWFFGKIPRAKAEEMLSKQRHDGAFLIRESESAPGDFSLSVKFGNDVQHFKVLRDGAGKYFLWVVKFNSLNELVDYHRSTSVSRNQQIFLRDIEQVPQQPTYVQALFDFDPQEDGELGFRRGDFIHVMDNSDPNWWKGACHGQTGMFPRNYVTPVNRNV
row,Sequence,SH2 binding enrichment
1,PGQRVYVVAES [SHH_Y316_R321S],0.756
2,PVDVAYRHGFF [PLEC_Y2967_R2969H_YF],0.722
3,IGEGTYRTVFK [CDK5_Y15_G16R],0.674
4,RNVFFYSFLLK [PTEN_Y178_Y174N_YF],1.22
5,SLQFEYVHFGG [CDC14A_Y591_S589F_YF],1.08
6,ILIFHYAKGQP [MPZ_Y82_S78L],1.47
7,HISGVYKLPPD [ANGPTL7_Y145_R140H],0.957
8,KGRAGYTTVAV [RET_Y752],1.47
9,ATARPYRPYII [LRP5_Y1528],1.04
10,PSGPAYRGAVP [ASAH1_Y43_T42A],0.72
11,ARGMEYLASKK [FGFR1_Y613],0.529
12,RKETFYILSCR [GUCY2C_Y681_T682I],1.15
13,RLRKYHLGKYL [KLB_Y906_Y906H],0.476
14,FLTQHYDAEPQ [ANG_Y38_K41E],0.992
15,TEQDPYNNIVH [MMUT_Y364_R369H],0.913
16,YSGDCYRIQGR [DDR2_Y741_Y740C],0.798
17,LKEIRYPPFTD [ALDH3B2_Y362_H361R_YF],0.798

row,Sequence,SH2 binding enrichment
1,DQIDTYELSGG [DNM1_Y354],0.673
2,NHFKIYNLCAE [PTEN_Y68_YF],0.967
3,WQQQSYLDYGI [CTNNB1_Y30_S33Y],0.818
4,GLSAPYVKIHL [SYT2_Y309_D307A],1.03
5,KIVQDYLEKFY [MMP8_Y36_T32I],1.02
6,GVRLFYRVRES [RB1_Y454_M457R_YF],0.705
7,KVGRVYLFLQP [ITGA2B_Y360_E355K],0.843
8,NRVEIYEKTVE [CYFIP1_Y108],0.803
9,VPLLEYFRDIF [CDAN1_Y712_YF],1.44
10,DDHFTYSRYPW [LY75_Y888],0.531
11,LVSCTYQLARG [FGFR2_Y608],0.894
12,IHFAIYLLKFS [ARMC9_Y107_YF],1.69
13,PPSLSYLSFEG [EXOSC3_Y143_A139P],1.07
14,LNARHYGGLTG [PGAM2_Y92_E89A],0.779
15,KVNKIYHPDFI [LIG3_Y767_Y768H],0.889
16,QSPQLYKQMCI [DARS1_Y253],0.904

# Biological target: SHP2-C SH2
# Assay: as above
row,Sequence,SH2 binding enrichment
1,PGQRVYVVAES [SHH_Y316_R321S],0.892
2,PVDVAYRHGFF [PLEC_Y2967_R2969H_YF],0.576
3,IGEGTYRTVFK [CDK5_Y15_G16R],0.614
4,RNVFFYSFLLK [PTEN_Y178_Y174N_YF],1.02
5,SLQFEYVHFGG [CDC14A_Y591_S589F_YF],0.925
6,ILIFHYAKGQP [MPZ_Y82_S78L],1.27
7,HISGVYKLPPD [ANGPTL7_Y145_R140H],0.925
8,KGRAGYTTVAV [RET_Y752],1.64
9,ATARPYRPYII [LRP5_Y1528],0.86
10,PSGPAYRGAVP [ASAH1_Y43_T42A],0.455
11,ARGMEYLASKK [FGFR1_Y613],0.513
12,RKETFYILSCR [GUCY2C_Y681_T682I],0.663
13,RLRKYHLGKYL [KLB_Y906_Y906H],0.594
14,FLTQHYDAEPQ [ANG_Y38_K41E],0.635
15,TEQDPYNNIVH [MMUT_Y364_R369H],0.769
16,YSGDCYRIQGR [DDR2_Y741_Y740C],0.506
17,LKEIRYPPFTD [ALDH3B2_Y362_H361R_YF],0.68

row,Sequence,SH2 binding enrichment
1,DQIDTYELSGG [DNM1_Y354],0.585
2,NHFKIYNLCAE [PTEN_Y68_YF],0.825
3,WQQQSYLDYGI [CTNNB1_Y30_S33Y],0.648
4,GLSAPYVKIHL [SYT2_Y309_D307A],3.06
5,KIVQDYLEKFY [MMP8_Y36_T32I],0.812
6,GVRLFYRVRES [RB1_Y454_M457R_YF],0.578
7,KVGRVYLFLQP [ITGA2B_Y360_E355K],0.724
8,NRVEIYEKTVE [CYFIP1_Y108],0.85
9,VPLLEYFRDIF [CDAN1_Y712_YF],1.38
10,DDHFTYSRYPW [LY75_Y888],0.942
11,LVSCTYQLARG [FGFR2_Y608],0.7
12,IHFAIYLLKFS [ARMC9_Y107_YF],1.45
13,PPSLSYLSFEG [EXOSC3_Y143_A139P],0.814
14,LNARHYGGLTG [PGAM2_Y92_E89A],0.656
15,KVNKIYHPDFI [LIG3_Y767_Y768H],0.999
16,QSPQLYKQMCI [DARS1_Y253],0.904

# Biological target: c-Src SH2
# Assay: as above
row,Sequence,SH2 binding enrichment
1,PGQRVYVVAES [SHH_Y316_R321S],0.55
2,PVDVAYRHGFF [PLEC_Y2967_R2969H_YF],0.552
3,IGEGTYRTVFK [CDK5_Y15_G16R],0.47
4,RNVFFYSFLLK [PTEN_Y178_Y174N_YF],0.907
5,SLQFEYVHFGG [CDC14A_Y591_S589F_YF],0.643
6,ILIFHYAKGQP [MPZ_Y82_S78L],1.1
7,HISGVYKLPPD [ANGPTL7_Y145_R140H],0.459
8,KGRAGYTTVAV [RET_Y752],1.47
9,ATARPYRPYII [LRP5_Y1528],0.784
10,PSGPAYRGAVP [ASAH1_Y43_T42A],0.49
11,ARGMEYLASKK [FGFR1_Y613],0.456
12,RKETFYILSCR [GUCY2C_Y681_T682I],0.519
13,RLRKYHLGKYL [KLB_Y906_Y906H],0.395
14,FLTQHYDAEPQ [ANG_Y38_K41E],0.612
15,TEQDPYNNIVH [MMUT_Y364_R369H],2.11
16,YSGDCYRIQGR [DDR2_Y741_Y740C],0.615
17,LKEIRYPPFTD [ALDH3B2_Y362_H361R_YF],0.605

row,Sequence,SH2 binding enrichment
1,DQIDTYELSGG [DNM1_Y354],0.607
2,NHFKIYNLCAE [PTEN_Y68_YF],0.974
3,WQQQSYLDYGI [CTNNB1_Y30_S33Y],0.511
4,GLSAPYVKIHL [SYT2_Y309_D307A],1.07
5,KIVQDYLEKFY [MMP8_Y36_T32I],0.504
6,GVRLFYRVRES [RB1_Y454_M457R_YF],0.476
7,KVGRVYLFLQP [ITGA2B_Y360_E355K],0.48
8,NRVEIYEKTVE [CYFIP1_Y108],0.678
9,VPLLEYFRDIF [CDAN1_Y712_YF],1.13
10,DDHFTYSRYPW [LY75_Y888],0.432
11,LVSCTYQLARG [FGFR2_Y608],0.515
12,IHFAIYLLKFS [ARMC9_Y107_YF],1.13
13,PPSLSYLSFEG [EXOSC3_Y143_A139P],0.504
14,LNARHYGGLTG [PGAM2_Y92_E89A],0.446
15,KVNKIYHPDFI [LIG3_Y767_Y768H],0.494
16,QSPQLYKQMCI [DARS1_Y253],0.638
